In patent US20040091453, “Pancreatic langerhans beta cell proliferation promoter and apoptosis inhibitor, and screening of candidate compounds for the e drugs” (published 2004):

Molecular target: PARP (poly(ADP-ribose) polymerase), purified (Homo sapiens, UniProt P09874 P09874:2-1014)
Assay: EMSA; 10 ng PARP; retarded band at position different from nuclear extract complex; room temperature, 2 mM MgCl2, 50 mM NaCl
Details: tags: Trevigen Inc; label: 32P
Description: Biophys. Acta, 1219, 241-243) and stored at −80° C. until use. GMSA was performed by the method of Garabedian (Garabedian, M. J. et al. Analysis of protein—DNA interactions in Gene Transcription: A practical approach (Hamesm, B. D., and Higgins, S. J. eds.), pp. 243-293, IRL Press, Oxford (1993)). The nuclear extract (10 μg) was incubated in a final volume of 20 μl of buffer containing 20 mM Tris-HCl (pH 7.9), 2 mM MgCl₂, 50 mM NaCl, 2 mM EDTA, 10% glycerol, 0.1% Nonidet P-40, 1 mM DTT, 50 μg/ml bovine serum albumin and 1 μg of poly(dI-dC). After incubation for 10 min at room temperature, 2.5 pmol of double-stranded DNA, previously labeled by an exchange reaction using MEGALABEL™ (Takara Shuzo) and [γ-³²P]ATP (Amersham Pharmacia Biotech), were added and incubated for 30 min at room temperature, then the binding reactions were resolved on pre-run 6% acrylamide gel. When competition experiments were conducted in the presence of 100-fold molar excess of cold probe, an unlabeled competitor was added with the labeled probe. In the supershift assay, 2 μg of anti-Sp1, -Sp2, -Sp3 or -Sp4 antibody (Santa Cruz) were added prior to the addition of the ³²P-probe. […] DNA was detected by immunoblot using an ECL 3′-oligolabelling and detection system (Amersham Pharmacia Biotech). […]

Sequence of PARP (poly(ADP-ribose) polymerase), purified (P09874 2-1014, one chain of several): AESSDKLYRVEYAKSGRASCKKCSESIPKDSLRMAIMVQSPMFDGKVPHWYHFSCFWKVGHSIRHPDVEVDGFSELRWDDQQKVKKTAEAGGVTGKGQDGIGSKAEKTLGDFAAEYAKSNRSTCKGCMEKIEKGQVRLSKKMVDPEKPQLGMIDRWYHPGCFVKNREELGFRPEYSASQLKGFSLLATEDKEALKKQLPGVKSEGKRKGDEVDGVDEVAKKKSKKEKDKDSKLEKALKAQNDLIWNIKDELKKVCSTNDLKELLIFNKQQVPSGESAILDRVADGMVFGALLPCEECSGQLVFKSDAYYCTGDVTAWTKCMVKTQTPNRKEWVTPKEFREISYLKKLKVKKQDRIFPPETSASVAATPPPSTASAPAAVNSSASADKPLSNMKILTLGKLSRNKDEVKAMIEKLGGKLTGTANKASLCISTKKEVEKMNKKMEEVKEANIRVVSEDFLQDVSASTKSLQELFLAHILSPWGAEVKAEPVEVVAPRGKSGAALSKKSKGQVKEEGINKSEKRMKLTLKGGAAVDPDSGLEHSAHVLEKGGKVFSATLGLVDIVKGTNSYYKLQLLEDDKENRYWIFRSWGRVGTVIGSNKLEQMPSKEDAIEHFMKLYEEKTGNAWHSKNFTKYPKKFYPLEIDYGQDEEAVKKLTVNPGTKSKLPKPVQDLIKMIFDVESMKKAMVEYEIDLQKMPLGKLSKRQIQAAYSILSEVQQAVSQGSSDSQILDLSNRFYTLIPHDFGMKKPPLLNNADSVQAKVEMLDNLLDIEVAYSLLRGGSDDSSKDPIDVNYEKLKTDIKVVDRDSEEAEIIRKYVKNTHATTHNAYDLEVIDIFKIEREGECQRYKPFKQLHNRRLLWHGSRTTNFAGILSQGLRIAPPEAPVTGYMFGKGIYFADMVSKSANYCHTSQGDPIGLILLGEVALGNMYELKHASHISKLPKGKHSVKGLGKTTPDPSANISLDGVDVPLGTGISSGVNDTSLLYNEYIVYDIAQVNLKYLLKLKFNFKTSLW

B1: Probe 1 (rat Reg -86 to -65) (dsDNA)
DNA 1: TTCCTTGCCCCTCCCATTTTTC
DNA 2: GAAAAATGGGAGGGGCAAGGAA
B1: binds.
